Test results as given in US12144869B2, “Anti-ROR1 antibody conjugates, compositions comprising anti ROR1 antibody conjugates, and methods of making and using anti-ROR1 antibody conjugates” (Sutro Biopharma, Inc., priority 2022, dated 2024).

Key:
[1] = system: ROR1 positive Ntera-2 cell; assay: In vitro cell killing of ROR1 ADCs on Ntera-2; type: cell-based
Method: (§1) Anti-ROR1 antibody was conjugated to different linker-warheads described herein at different DARs and the cell killing activity of the ADCs were evaluated on ROR1 positive Ntera-2 cell and ROR1 negative MCF7 cells.
(§2) Ntera-2 or MCF7 cell at 625 cells/25 μL were seeded in a 384-well flat bottom white polystyrene plate one day before the assay start. ADCs were formulated at 2× starting concentration. Filter sterilized samples were serial diluted (1:3) under sterile conditions and added onto cells in triplicates. Plates were cultured at 37° C. in a CO2 incubator for 120 hours. For cell viability measurement, 30 microliter of Cell Titer-Glo® reagent (Promega Corp, Madison, WI) was added into each well, and plates processed as per product instructions. Relative luminescence was measured on an ENVISION® plate reader (Perkin-Elmer; Waltham, MA). Relative luminescence readings were converted to % viability using untreated cells as controls. Data was fitted with non-linear regression analysis, using log (inhibitor) vs. response, variable slope, 4-parameter fit equation using GraphPad Prism.
To evaluate if the cell killing activity of anti-ROR1 ADCs is dependent on antibody binding to ROR1 expressed on cell surface, the same linker-warheads (LP3, LP4) were conjugated to an anti-GFP antibody and the cell killing of the anti-ROR1 and anti-GFP ADCs were evaluated in cell killing assays on ROR1 positive Ntera-2 cell and ROR1 negative MCF7 cells. […]

ROR1 negative MCF7 cells = assay: In vitro cell killing of ROR1 ADCs on MCF7; type: cell-based
Method: as §1, §2
To evaluate if the cell killing activity of anti-ROR1 ADCs is dependent on antibody binding to ROR1 expressed on cell surface, the same linker-warheads (LP3, LP4) were conjugated to an anti-GFP antibody and the cell killing of the anti-ROR1 and anti-GFP ADCs were evaluated in cell killing assays on ROR1 positive Ntera-2 cell and ROR1 negative MCF7 cells.

[2] = system: ROR1-positive Ntera-2 cells; assay: Induction of immunogenic cell death markers (calreticulin FACS, HMGB1 ELISA); type: cell-based; settings: 3 days treatment
Method: ROR1-positive Ntera-2 cells were treated with Conjugate 46 or exatecan for 3 days. Calreticulin on the cell surface was measured by FACS and HMGB1 in the cell culture medium were measured by ELISA. […] FIG. 20A and FIG. 20B illustrate calreticulin expression and HMGB1 release of Ntera-2 cells in the presence of Conjugate 46 or exatecan compared to the un-conjugated antibody and an isotype control of Conjugate 46.

[3] = system: ROR1-positive Ntera-2 cells co-cultured with PMBCS; assay: Ntera-2/PBMC co-culture: target cell killing and monocyte activation; type: cell-based
Method: ROR1-positive Ntera-2 cells were co-cultured with PMBCS at E:T=[…] and treated with Conjugate 46 or exatecan for 3 days. Live target cell count and monocyte activation were measured by FACS. […] FIG. 21A and FIG. 21B are graphs showing the percent of live target cells and monocyte activation in Ntera-2 cells following treatment with Conjugate 46 or exatecan compared to the un-conjugated antibody and an isotype control of Conjugate 46. […] Unconjugated anti-ROR1 antibody or a non-targeted ADC had no activity. […] Viability and calreticulin surface expression were measured and presented as a percentage compared to untreated cells.

[4] = Differential scanning fluorimetry (protein thermal shift; TM1/TM2); type: physicochemical; settings: Table 11; melting temperature of the Fab domain
Method: A protein thermal shift assay was carried out by mixing the protein to be assayed with an environmentally sensitive dye (SYPRO Orange, Life Technologies Cat #S-6650) in a phosphate buffered solution (PBS), and monitoring the fluorescence of the mixture in real time as it underwent controlled thermal denaturation. Protein solutions between 0.2-2 mg/mL were mixed at a 1-1 volumetric ratio with a 1-500 PBS-diluted solution of SYPRO Orange (SYPRO Orange stock dye is 5000× in DMSO). 10 μL aliquots of the protein-dye mixture were dispensed in quadruplicate in a 384-well microplate (Bio-Rad Cat #MSP-3852), and the plate was sealed with an optically clear sealing film (Bio-Rad Cat #MSB-1001) and placed in a 384-well plate real-time thermocycler (Bio-Rad CFX384 Real Time System). The protein-dye mixture was heated from […], at increments of 0.1° C. per cycle (˜1.5° C. per minute), allowing 3 seconds of equilibration at each temperature before taking a fluorescence measurement. At the end of the experiment, the transition melting temperatures (TM1 and TM2) were determined using the Bio-Rad CFX manager software. TM1 represents the melting temperature of the Fc domain. TM2 represents the melting temperature of the Fab domain.
For the thermal stability of an antibody, the first melting peak (Tm1) coincides with the unfolding of the CH2 domain (FC stability), while the second melting peak (Tm2) occurs upon unfolding of the Fab domain.

ROR1 or ROR2 = assay: ROR2 cross-reactivity ELISA (ROR1/ROR2 signal ratio); type: binding; settings: Table 11; SP34 light chain
Method: Antibodies were tested for their ability to bind to either ROR1 or ROR2 via ELISA. Briefly, 2 μg/mL of ROR1 or ROR2 (Acro Biosystems) were coated to 384-well polystyrene plates for 1 hr at 30° C. in 0.1 M bicarbonate pH8.9 buffer before they were washed and blocked with 2% BSA in PBST (PBS, 0.1% Tween20) for 1 hr. Antibody variants were diluted to 2.5 μg/mL and further serially diluted 3-fold before 30 μL was applied to the ELISA plates for binding (1 hr at 30° C.). Antibody binding was detected via HRP-conjugated anti-human Fc antibodies (Jackson Immunoresearch) and detection with SuperSignal ELISA Pico Chemiluminescent Substrate (Pierce). Cross-reactivity was reported as a ratio of ROR1-ELISA signal over ROR2-ELISA signal at the highest dilution tested.

human ROR1-Fz = molecular target: T1, human ROR1-Fz (Homo sapiens, UniProt Q01973); assay: Biacore off-rate and kinetic analysis, ROR1-Fz; type: binding; settings: Table 11; SP34 light chain
T1 construct: Frizzled (Fz, residues 165-305); His6 (C); purchased Acro Biosystems; host or cells: HEK293
T1 sequence (Q01973 165-305): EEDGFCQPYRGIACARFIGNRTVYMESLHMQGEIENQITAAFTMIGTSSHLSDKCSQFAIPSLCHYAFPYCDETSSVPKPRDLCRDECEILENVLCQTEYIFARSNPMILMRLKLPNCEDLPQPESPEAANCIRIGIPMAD
Method: Anti-Fc polyclonal antibodies were immobilized onto a CMS chip (GE Life Sciences) using amine coupling chemistry (from Amine Coupling Kit, GE Life Sciences). The immobilization steps were carried out at a flow rate of 25 μL/min in 1×HBS-EP+buffer (GE Life Sciences; 10× Stock diluted before use). The sensor surfaces were activated for 7 min with a mixture of NHS (0.05 M) and EDC (0.2 M). The Anti-Fc antibodies were injected over all 4 flow cells at a concentration of 25 ug/ml in 10 mM sodium acetate, pH 4.5, for 7 min. Ethanolamine (1 M, pH 8.5) was injected for 7 min to block any remaining activated groups. An average of 12,000 response units (RU) of capture antibody was immobilized on each flow cell.
Off-rate and kinetic binding experiments were performed at 25° C. using 1×HBS-EP+buffer. Test and control antibodies were injected over the anti-Fc surface at concentrations of 5-10 μg/mL for 12 seconds at a flow rate of 10 μL/min on flow cells 2, 3 and 4, followed by a buffer wash for 30 seconds at the same flow rate. Kinetic characterization of antibody samples was carried out with a range of antigen concentrations from 1-100 nM and 1 injection of 0 nM antigen (for example, 100, 50, 25, 6.25, 1.56 and 0 nM). After capturing ligand (antibody) on the anti-Fc surface, the analyte (hROR1, Fz or Kr domains, Acro Biosystems, Delaware) was bound for 180 seconds, followed by a 600 second dissociation phase at a flow rate of 50 μL/min. Between each ligand capture and analyte binding cycle, regeneration was carried out using 2 injections of 10 mM Glycine pH 2.0 for 30 seconds at 30 μL/min, followed by a 30 second buffer wash step.
The data was fit with the Biacore T200 Evaluation software, using a 1-1 Langmuir binding model. KD (affinity, nM) was determined as a ratio of the kinetic rate constants calculated from the fits of the association and dissociation phases.
For anti-CD3-LC-containing IgGs that had detectable ROR1-binding in ELISA (1944-A07 and 1987-C05 variants), those antibodies were further tested for binding by surface plasmon resonance (SPR). Binding kinetics were assessed to the ROR1-frizzled domain (hROR1-Fz) or the ROR1-extracellular domain (hROR1) for 1944-A07 and 1987-C05 variants, respectively. Briefly, anti-ROR1 antibodies were captured via anti-human Fc polyclonal antibodies immobilized to a CM5 chip, and ROR1 recombinant proteins were flowed across the surface to assess binding kinetics. hROR1 or hROR1-Fz domain (Acro Biosystems, Delaware) binding was tested at 100, 50, 25, 6.25, 1.5625 nM. The data was fit with the Biacore™ T200 Evaluation software, using a 1-1 Langmuir binding model. KD (affinity, nM) was determined as a ratio of the kinetic rate constants calculated from the fits of the association and dissociation phases.

CC[C@@]1(O)C(=O)OCc2c1cc1n(c2=O)Cc2c-1nc1cc(F)c(C)c3c1c2[C@@H](N)CC3 [exatecan]
EC50 ([1]; NTERA2, 120 h, read-out: NTERA-2 EC50): 0.074 nM | NTERA-2 Span ([1]; Table 13, ROR1 positive Ntera-2, 120 hours): 98% | EC50 (ROR1 negative MCF7 cells; Homo sapiens, MCF7, 120 h, read-out: MCF-7 EC50): 0.466 nM | MCF-7 Span (ROR1 negative MCF7 cells; Table 13, ROR1 negative MCF7, 120 hours): 91% | HMGB1 release into the cell culture medium (ELISA) [2]: induced | calreticulin translocation to the cell surface (FACS) [2]: induced | cell killing of target cells (live target cell count, FACS) ([3]; E:T=10.1, 3 days): induced potent cell killing of target cells | monocyte activation (CD86 expression) ([3]; E:T=10.1, 3 days): potently induced monocyte activation | calreticulin on the cell surface ([3]; concomitant with reduced viability): could be detected on the cell surface

B1: SRP2196-A07 (antibody, V domains shown)
VH: EVQLVESGGGLVQPGGSLRLSCAASGFNITGYYIHWVRQAPGKGLEWVGQISPNSGSTYYADSVKGRFTISADTSKNTAYLQMSSLRAEDTAVYYCARDSRRYVRGWDYWGQGTLVTVSS
VL: QAVVTQESALTTSPGETVTLTCRSSTGAVTTSNYANWVQEKPDHLFTGLIGGTNKRAPGVPARFSGSLIGDKAALTITGAQTEDEAIYFCALWYSNLWVFGGGTKLTVL
TM2 (° C.) [4]: 74 °C | ROR1/ROR2 ELISA ratio (ROR1 or ROR2): 16.3 | Biacore human ROR1-Fz ka (human ROR1-Fz): 186000 M⁻¹ s⁻¹ | Biacore human ROR1-Fz kd (human ROR1-Fz): 0.00064 s⁻¹

B2: SRP2196-A09 (antibody, V domains shown)
VH: EVQLVESGGGLVQPGGSLRLSCAASGFNITGYYIHWVRQAPGKGLEWVGQISPNSGATHYADSVKGRFTISADTSKNTAYLQMNSLRAEDTAVYYCARDSRRYIRSWDYWGQGTLVTVSS
VL: QAVVTQESALTTSPGETVTLTCRSSTGAVTTSNYANWVQEKPDHLFTGLIGGTNKRAPGVPARFSGSLIGDKAALTITGAQTEDEAIYFCALWYSNLWVFGGGTKLTVL
TM2 (° C.) [4]: 75 °C | ROR1/ROR2 ELISA ratio (ROR1 or ROR2): 20.1 | Biacore human ROR1-Fz ka (human ROR1-Fz): 150000 M⁻¹ s⁻¹ | Biacore human ROR1-Fz kd (human ROR1-Fz): 0.000568 s⁻¹

B3: SRP2196-B03 (antibody, V domains shown)
VH: EVQLVESGGGLAQPGGSLRLSCAASGFNITGYYIHWVRQAPGKGLEWVGYISPNSGATHYADSVKGRFTISADTSKNTAYLQMNSLRAEDTAVYYCARDSRRYVRPFDYWGQGTLVTVSS
VL: QAVVTQESALTTSPGETVTLTCRSSTGAVTTSNYANWVQEKPDHLFTGLIGGTNKRAPGVPARFSGSLIGDKAALTITGAQTEDEAIYFCALWYSNLWVFGGGTKLTVL
TM2 (° C.) [4]: 71 °C | ROR1/ROR2 ELISA ratio (ROR1 or ROR2): 22.8 | Biacore human ROR1-Fz ka (human ROR1-Fz): 124000 M⁻¹ s⁻¹ | Biacore human ROR1-Fz kd (human ROR1-Fz): 0.000945 s⁻¹

B4: SRP2196-B09 (antibody, V domains shown)
VH: EVQLVESGGGLVQPEGSLRLSCAASGFNITEYYIHWVRQAPGKGLEWVGYISPNSGSTYYADSVKGRFTISADTSKNTAYLQMNSLRAEDTAVYYCARDSRRYVRSWDYWGQGTLVTVSS
VL: QAVVTQESALTTSPGETVTLTCRSSTGAVTTSNYANWVQEKPDHLFTGLIGGTNKRAPGVPARFSGSLIGDKAALTITGAQTEDEAIYFCALWYSNLWVFGGGTKLTVL
TM2 (° C.) [4]: 72 °C | ROR1/ROR2 ELISA ratio (ROR1 or ROR2): 27.3 | Biacore human ROR1-Fz ka (human ROR1-Fz): 130000 M⁻¹ s⁻¹ | Biacore human ROR1-Fz kd (human ROR1-Fz): 0.000427 s⁻¹

B5: SRP2196-B01 (antibody, V domains shown)
VH: EVQLVESGGGLVQPGGSLRLSCAASGFNITGYYIHWVRQAPGKGLEWVGQISPNSGYTYYADSVKGRFTISADTSKNTTYLQMNSLRAEDTAVYYCARDSRRYVRSWDYWGQGTLVTVSS
VL: QAVVTQESALTTSPGETVTLTCRSSTGAVTTSNYANWVQEKPDHLFTGLIGGTNKRAPGVPARFSGSLIGDKAALTITGAQTEDEAIYFCALWYSNLWVFGGGTKLTVL
TM2 (° C.) [4]: 75 °C | ROR1/ROR2 ELISA ratio (ROR1 or ROR2): 17.2 | Biacore human ROR1-Fz ka (human ROR1-Fz): 131000 M⁻¹ s⁻¹ | Biacore human ROR1-Fz kd (human ROR1-Fz): 0.000401 s⁻¹

B6: SRP2196-B11 (antibody, V domains shown)
VH: EVQLVESGGGLVQPGGSLRLSCAASGFNITGYYIHWVRQAPGRGLEWVGQISPNSGYTYYADSVKGRFTISADTSKNTAYLQMNSLRAEDTAVYYCARDSRRYIRSWDYWGQGTLVTVSS
VL: QAVVTQESALTTSPGETVTLTCRSSTGAVTTSNYANWVQEKPDHLFTGLIGGTNKRAPGVPARFSGSLIGDKAALTITGAQTEDEAIYFCALWYSNLWVFGGGTKLTVL
TM2 (° C.) [4]: 74 °C | ROR1/ROR2 ELISA ratio (ROR1 or ROR2): 19.1 | Biacore human ROR1-Fz ka (human ROR1-Fz): 137000 M⁻¹ s⁻¹ | Biacore human ROR1-Fz kd (human ROR1-Fz): 0.000597 s⁻¹
